The target in one test is T1, recombinant human ICAM-1 (human, UniProt P05362 28-480).
T1 construct: Bought recombinant protein; In SPR it was captured on an SA sensor chip; also called intercellular adhesion molecule 1; CD54
As to the kind of experiment: SPR (Biacore 3000), ICAM-1 captured on SA chip, monomeric VHH injected, 25 C. As for the experimental part:
Three clones (5-5, 11-4, and 34-1) obtained in Example 4 were individually passed through size exclusion columns, Superdex 75 (GE Healthcare) in 10 mM HEPES, pH 7.4, containing 150 mM NaCl, 3 mM EDTA; monomeric sdAb fractions were collected and protein concentrations were determined by measuring A₂₈₀. SPR analyses were performed with Biacore 3000 instrument (GE Healthcare). All measurements were carried out at 25° C. in 10 mM HEPES, pH 7.4, containing 150 mM NaCl, 3 mM EDTA and 0.005% surfactant P20 (GE Healthcare). Approximately 700-900 RUs of the recombinant ICAM-1 was captured on SA sensor chip (GE Healthcare) at a flow rate of 5 μl/min. Various concentration of the monomeric VHH were injected over the ICAM-1 surface, using a SA surface as a reference, at a flow rate of 40 μl/min. Surfaces were generated by washing with running buffer. Data were analysed with BIAevaluation 4.1 software.
For orientation: Surface plasmon resonance follows binding to a sensor surface in real time, without labels.

Test [1] concerns the target T2, rat ICAM-1 on LPS-induced rat brain endothelial cells (SV-RBEC) (rat, UniProt Q00238 28-545).
T2 construct: whole, on cells; Endogenous protein on fixed cells
T2 sequence (looked up): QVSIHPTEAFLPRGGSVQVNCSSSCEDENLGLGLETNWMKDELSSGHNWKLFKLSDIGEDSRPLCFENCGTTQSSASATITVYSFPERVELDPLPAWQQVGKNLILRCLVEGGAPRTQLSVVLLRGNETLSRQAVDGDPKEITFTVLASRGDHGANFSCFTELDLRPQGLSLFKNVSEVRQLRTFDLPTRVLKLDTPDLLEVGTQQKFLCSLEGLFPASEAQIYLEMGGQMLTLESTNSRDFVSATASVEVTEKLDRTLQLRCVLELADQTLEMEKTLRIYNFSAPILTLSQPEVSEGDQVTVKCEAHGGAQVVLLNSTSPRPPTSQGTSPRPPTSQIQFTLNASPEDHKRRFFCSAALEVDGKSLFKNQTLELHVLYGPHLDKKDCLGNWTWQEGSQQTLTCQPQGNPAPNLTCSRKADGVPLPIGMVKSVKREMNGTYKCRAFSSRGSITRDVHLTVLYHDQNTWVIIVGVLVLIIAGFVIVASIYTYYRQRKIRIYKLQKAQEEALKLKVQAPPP
In words: immunofluorescence with Cy5.5-labelled sdAb on fixed SV-RBEC cells with or without LPS. As for the experimental part: Rat brain endothelial cells (SV-RBEC) were cultured on coverslips for 3 days in DMEM and 10% FBS. ICAM-1 expression was induced by adding 5 μg (1 mg/ml) of lipopolysaccharide (LPS; Sigma) overnight. Cells were then washed 3× with cold PBS, fixed with 3.7% formaldehyde for 20 min, washed again 3× in PBS at RT, and then blocked with 5% of normal goat serum/PBS for 1 h at RT. 25 μg anti-ICAM-1 IgG or 50 μg anti-ICAM-1 single domain antibodies (34-1, 11-4, 5-5) labelled with Cy5.5 (red) were incubated for 1 h at RT then washed 3× in PBS. The washed cells were incubated in 1:500 WGA-FITC/PBS for 1 min on ice, for membrane staining (green) then washed again 3× with PBS. Coverslips were then mounted in DAKO mounting medium containing 2 μg/ml of Hoechst for nuclear staining (blue).

The target of test [2] is T3, mouse ICAM-1 in vivo (vasculature and atherosclerotic plaques of ApoE KO mice) (mouse, UniProt P13597 28-537).
T3 construct: whole, on cells; Endogenous protein in the living animal; also called ICAM-1 receptor
T3 sequence (P13597 28-537): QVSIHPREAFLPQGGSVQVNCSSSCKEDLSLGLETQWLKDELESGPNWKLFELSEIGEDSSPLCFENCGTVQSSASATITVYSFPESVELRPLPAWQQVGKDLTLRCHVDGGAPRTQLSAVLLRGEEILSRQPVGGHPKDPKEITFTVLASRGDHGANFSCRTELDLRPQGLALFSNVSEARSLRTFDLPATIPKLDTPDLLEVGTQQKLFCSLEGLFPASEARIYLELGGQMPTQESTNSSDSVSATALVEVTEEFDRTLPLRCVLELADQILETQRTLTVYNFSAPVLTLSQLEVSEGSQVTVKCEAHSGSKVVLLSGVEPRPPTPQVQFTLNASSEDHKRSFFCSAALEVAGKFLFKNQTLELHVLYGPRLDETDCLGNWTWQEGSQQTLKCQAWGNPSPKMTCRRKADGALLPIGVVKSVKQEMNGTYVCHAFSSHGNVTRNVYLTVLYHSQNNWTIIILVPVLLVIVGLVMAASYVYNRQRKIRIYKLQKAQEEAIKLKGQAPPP
In words: in vivo near-infrared optical imaging of ApoE KO and control mice after injection of Cy5.5-labelled sdAb. The method, then: Anti-ICAM-1 antibodies were labelled with Cy5.5 succimidyl ester using methods recommended by the manufacturer (GE Healthcare). […] The presence of plaques in the aorta of atherosclerotic mice (Example 6) was visualized monthly via tail vein injection of 50 μg of anti-ICAM-1 sdAb using non-invasive in vivo optical imaging. In vivo imaging studies were performed using a small-animal time-domain eXplore Optix MX2 pre-clinical imager (Advanced Research Technologies, Montreal, QC) at 4, 24, 48, and 72 h after injection. For imaging, mice were first anesthetized with isofluorane, and then positioned on an animal stage in a chamber that allows for maintenance of gaseous anesthesia. A pre-injection scan was routinely performed to determine baseline fluorescence level. At the end of the study, animals were euthanized and perfused, organs were removed and imaged. […] The fluorescence emission at 700 nm was collected by a highly sensitive time-correlated single photon counting system and detected through a fast photomultiplier tube. The data were recorded as temporal point-spread functions (TPSF) and the images were reconstructed as fluorescence concentration maps using ART Optix Optiview analysis software 2.0 (Advanced Research Technologies, Montreal, QC).

T1 sequence (P05362 28-480 limits assumed): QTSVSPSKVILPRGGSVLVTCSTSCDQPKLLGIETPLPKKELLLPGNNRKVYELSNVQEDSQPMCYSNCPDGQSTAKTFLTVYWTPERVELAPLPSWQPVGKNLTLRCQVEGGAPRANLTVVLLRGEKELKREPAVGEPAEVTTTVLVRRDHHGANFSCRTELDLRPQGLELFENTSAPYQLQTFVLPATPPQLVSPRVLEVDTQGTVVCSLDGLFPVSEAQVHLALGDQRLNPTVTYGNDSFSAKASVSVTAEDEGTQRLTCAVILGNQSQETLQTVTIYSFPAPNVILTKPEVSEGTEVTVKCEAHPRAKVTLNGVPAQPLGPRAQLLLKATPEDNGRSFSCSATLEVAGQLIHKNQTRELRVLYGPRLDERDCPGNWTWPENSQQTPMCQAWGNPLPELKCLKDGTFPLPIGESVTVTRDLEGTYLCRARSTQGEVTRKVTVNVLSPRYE

B1: anti-ICAM sdAb clone 5-5 (VHH)
VHH: QVKLEESGGGLVQAGDSLRLSCAASGRTVNAFRMGWYRQAPGKQRERVAVITAGGTTSYIDSVKGRFTISRDNAKNTVYLQMNSLKPEDTAVYYCAAIDYDSRGQGTQVTVSS
notes: Soluble His6-tagged VHH expressed in E. coli from pSJF2, purified by IMAC, monomeric by SEC; also called llama sdAb clone 5-5
As a reminder, the Kd is the concentration at which binding is half-saturated. The koff is the rate constant with which the complex falls apart. The kon is the rate constant with which the complex forms. On to B1, for which, in the test with recombinant human ICAM-1, the Kd came to 0.06 µM, the koff was 0.004 s⁻¹ and the kon came to 70000 M⁻¹ s⁻¹.

B2: anti-ICAM-1 sdAb clone 5-5 labelled with Cy5.5 (VHH)
VHH: B1 VHH
modifications: labelled with Cy5.5 succimidyl ester, dye/antibody ratio of two; labelled residues not stated
notes: Cy5.5 conjugate of m2
Turning to B2, the binding result in test [1] is on record as “binds”.

B3: anti-ICAM-1 sdAb clone 34-1 labelled with Cy5.5 (VHH)
VHH: QVKLEESGGGLVQPGGSLRLSCAASGSIFSINDMGWYRQAPGKQRELVARITRDGSAAYEDSVKGRFTISRDNAPNTVFLQMNGLKPEDTAVYYCNAEIITTQTLGRMLGEYWGQGTQVTVSS
modifications: labelled with Cy5.5 succimidyl ester, dye/antibody ratio of two; labelled residues not stated
notes: Cy5.5 conjugate of m3
For the molecule B3, the binding result in test [1] is “binds”.

B4: anti-ICAM sdAb clone 34-1 (VHH)
VHH: B3 VHH
notes: Soluble His6-tagged VHH expressed in E. coli from pSJF2, purified by IMAC, monomeric by SEC; also called llama sdAb clone 34-1
For B4, in the test with recombinant human ICAM-1, the Kd came to 0.01 µM, the koff worked out at 0.002 s⁻¹ and the kon worked out at 100000 M⁻¹ s⁻¹.

B5: anti-ICAM-1 sdAb clone 11-4 labelled with Cy5.5 (VHH)
VHH: QVQLVESGGGLVQPGGSLRLSCAASGSISSLYVMGWYRQAPGKQRELVADITSSGSIYYVDSLKGRFTISRDNARSTVYLQMNSLEPEDTAVYYCMAHVRQDSGSEYLTYWGQGTQVTVSS
modifications: labelled with Cy5.5 succimidyl ester, dye/antibody ratio of two; labelled residues not stated
notes: also called anti-ICAM-1 sdAb 11-4-Cy5.5; anti-ICAM-1 11-4 sdAb-Cy5.5
On to B5, for which the binding result in test [1] and in test [2] was “binds” in each case.

B6: anti-ICAM sdAb clone 11-4 (VHH)
VHH: B5 VHH
notes: Soluble His6-tagged VHH expressed in E. coli from pSJF2, purified by IMAC, monomeric by SEC; also called llama sdAb clone 11-4; anti-ICAM-1 sdAb 11-4
Regarding B6, in the test with recombinant human ICAM-1, the Kd was 0.0009 µM, the koff is 0.002 s⁻¹ and the kon came out at 2e+06 M⁻¹ s⁻¹.
